Here are results for 30 sequences from the nanobody polyreactivity screen of Harvey et al. (2022).

The series is described as follows: yeast display, Sf9 membrane polyspecificity reagent, FACS + sequencing; frameworks hold sequencing errors. The method, boiled down:
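Genes from sorted yeast were amplified by colony PCR, read by MiSeq 2 × 250 sequencing and filtered on CDR length. These cells carried a synthetic nanobody library in Saccharomyces cerevisiae BJ5465 and were sorted by FACS into low and high (top ~1%) gates on anti-HA and streptavidin fluorescence. Polyreactivity is labelled according to the gate of origin.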
For the sequence “QVQLVETGGGLVQAGGSFRLSCAASGGPFDTYVMGWYRQAPGKETELVAVITRGASTYYADSVKGRFTISRDNAKNTVYLQMNSLKPEETAVYYCAASFYSPDYYRFLYSFDYWGQGTQVTVSS”, the “polyreactivity (PSR sort gate)” value is recorded as “low polyreactivity”.
For “QVQLVETGGGLVQAGGSHRLSCAASGSIFGKNVIGRYRQAPGKERELVAAITSGASTYYADSVKGRFTISRDNAKNTVYLQINSLKPEDTAVYYCAARRWRKYYSGYNYWGQGTQVSVSS”, the “polyreactivity (PSR sort gate)” value is recorded as “high polyreactivity”.
With “QVQLVETGGGLVQAGGSHSLSCAASVRTVSSYARGWCRQAPGTERELVARITWSGGTYYADSVKGRFTISRDNAKNTVYLQMNRLKPEDTSVYYCAKRSYYWEYYYWGQGTQVTVSS” the entry was “high polyreactivity”.
With “QVQLVETGGGLVQAGGSLGLSFAASGFIFSYYLMGWYRQAPGKERELVAAITTSGDSTYYADSVKGRFTISSDNAKNTVYLQINRLKPEDSAVYYCAADNYYETIWHYGYWGQGTQVTVSS”, the “polyreactivity (PSR sort gate)” value is recorded as “high polyreactivity”.
On to “QVQLVETGGGLVQAGGSLRISCAASGSTFVDYDMGWYRQAPGKERELVAGITTGGSTNYADSVKGRFTISRDNAKNTVYLQMNSLKPEDTAVYYCNADSYPNLVPDYLYYWYEYWGQGTQVTVSS”, for which the “polyreactivity (PSR sort gate)” value is recorded as “low polyreactivity”.
Turning to “QVQLVETGGGLVQAGGSLRLICAASGSTFQPYAMGWYRQAPGKEREFVATISGSAGSTYYADSVKGRFKISRDNAKNTVYLQMNSLKPEDTAVYYCNADSGWFGYDYWGQGTQVTVSS”, the “polyreactivity (PSR sort gate)” value is “low polyreactivity”.
For the sequence “QVQLVETGGGLVQAGGSLRLICAASGSTFQYYAMGWSRQAPGKERELVAAITHSGTRTYYADSVKGRFTISRDNAKNTVYLQMYRLKPEDTSVYYCAALYTWYRYYRLDYWGQGTQVTVSS”, the “polyreactivity (PSR sort gate)” value is reported as “high polyreactivity”.
With “QVQLVETGGGLVQAGGSLRLSCAASAFTFASYAMGWYRQAPGKEREFVAAITRSGGSTYYADSVKGRFTISRDNAKNTVYLQMNSLKPEDTAVYYGAAQYHGGISQRLYYWGQGTQVTVSS” the entry was “high polyreactivity”; with “QVQLVETGGGLVQAGGSLRLSCAASGFIFPIYAMGWYRQATGKERELVAVISGSGGSTYYADSVKGRFTISRDNAKNTVYLQMNSLKPEDTAVYYCAARGRNVAGYKGGYWGQGTQVTVSS”, “low polyreactivity”.
Consider “QVQLVETGGGLVQAGGSLRLSCAASGFIFRYYAMGWYRPAPGKERELVAVISSNGARTSYADSVKGRFTISRDNAKNTVYLQMNSLKPEDTADYYCNARAWSRFPPVGHDYWGQGTQVTVSS”, for which the “polyreactivity (PSR sort gate)” value is listed as “high polyreactivity”.
In the case of “QVQLVETGGGLVQAGGSLRLSCAASGFIFVDYAMGWYRPAPGKERELVAAITSNDDRTYYADSVKGRFTISRDNAKNTVYLQMNSLKPEDTAVYYCAAGGWGATADATFTYLYDYWGQGTQVTVSS”, the “polyreactivity (PSR sort gate)” value is on record as “low polyreactivity”.
On to “QVQLVETGGGLVQAGGSLRLSCAASGFTFAKYAMGRYRQAPGKERELVAAISSIGGSTYYADSVKGRFTISRDNAKNSVYLQMNSLKPEDSAVYFCAAELYCGYYYWGQGTQVTVYS”, for which the “polyreactivity (PSR sort gate)” value is on record as “high polyreactivity”.
“QVQLVETGGGLVQAGGSLRLSCAASGFTFAPYVMGWSRQAPGKERELVAAINWSGTRTYYADSVKGRFTFSRDNAKNTVYLQMNSLKPEDTAVYYCAARSVTVSGSLQPKRRYGYWGQGTQVTVSS”: the “polyreactivity (PSR sort gate)” value is given as “high polyreactivity”.
Consider “QVQLVETGGGLVQAGGSLRLSCAASGFTFFYYDMGWYRQAPGKERELVADITTGGSTNYADSVKGRFTISRDNAKNTVYFQMNSLKTEDTAVYYCAAATTYPYGYYYWGQGTEVTVSS”, for which the “polyreactivity (PSR sort gate)” value is recorded as “high polyreactivity”.
With “QVQLVETGGGLVQAGGSLRLSCAASGFTFIDYTMGWYRQAPGKERELVARITDTGSTNYEDSVKGRFTISRDT”, the “polyreactivity (PSR sort gate)” value is on record as “low polyreactivity”.
Consider “QVQLVETGGGLVQAGGSLRLSCAASGFTFSFYTMGWYRQAPGKERELVAAISRRGGSTYYADSVKGRFTISRDNAKNTVYLQMNSLKPEDTAVYYCPTDHIPSVGDDYWGQGTQVTVSS”, for which the “polyreactivity (PSR sort gate)” value was “high polyreactivity”.
In the case of “QVQLVETGGGLVQAGGSLRLSCAASGIIFGGYDRGWYRQAPGKERELVAAISWSGGSTYYAASVKGRFTISRDNAKNTVYLEMNSLKPEDTAVYYCAAAYYAPTRDYYYWGQGTQVTVSS”, the “polyreactivity (PSR sort gate)” value is “low polyreactivity”.
With “QVQLVETGGGLVQAGGSLRLSCAASGITFFAYAMGWYRQAPGKERELVAAISTGGSTNYADSVKGRFTISRDNAKNTVYLQMNSLKPEDTAVYYCGSDRSDLAEEGYAGYDYWGQVTQVTVSS” the entry was “low polyreactivity”; with “QVQLVETGGGLVQAGGSLRLSCAASGITFKNYAMGWYRQANGKERELVATINRGSRTNYADSVKGRFTISRDNAKNTVYLQMNSLKPEDTAVYYCNVDQANYRWVPWEMDYWGQGSQVTVSS”, “low polyreactivity”; with “QVQLVETGGGLVQAGGSLRLSCAASGLIFSYKAMGWYRQAPGKERELVGAISRGGSTYYADSVKGRFTISRDNAKNTVYLQMNSLKRVDTAVYYCAADFYGWVDYWGQGTQVTVSS”, “high polyreactivity”.
For “QVQLVETGGGLVQAGGSLRLSCAASGLTIHPYAKGCYRQAPGKERELVAAISSRGTSTYYADSVKGRFTISRDNAKNTVYLQMNSLKPEDTAVYYCAARHGPRAEAMYYWGQGTQVTVSS”, the “polyreactivity (PSR sort gate)” value is listed as “high polyreactivity”.
Take “QVQLVETGGGLVQAGGSLRLSCAASGLTSLGNAMGGYRQAPGKERELVAAITRTVTSTYYADSVKGRFTISRDTAKNTVYLQMNSLKPEDTAVYYCAADWWYGYSNYDYWGQGTEVTVSS”: the “polyreactivity (PSR sort gate)” value is listed as “low polyreactivity”.
In the case of “QVQLVETGGGLVQAGGSLRLSCAASGPTFSRNAKGWYRQAPGKERELVATISRGGGITFYADSVKGRFTISRDNAKNTVYLQMNSLKPEDTAVYYCNADVRYVGLRRIVDYWGQGTQVTVSS”, the “polyreactivity (PSR sort gate)” value is “high polyreactivity”.
As for “QVQLVETGGGLVQAGGSLRLSCAASGRIFGHYVMGWYRPAPGTERELVAAITWRGGSTYYADSVKGRFTISRDYAKNTVYLQMNSLKPEDTAVYDCNASPSEVRRRYDYWGQGTQVTVSS”, the “polyreactivity (PSR sort gate)” value is “high polyreactivity”.
Regarding “QVQLVETGGGLVQAGGSLRLSCAASGRIFLGYAMGCYRQAPGKERELVAAISGRGGRTNYADSVKGRFTISRDNAKNTVYLQMNSLKPEDTAVYYCATVPYTASRYEYWGQGTQVTVSS”, the “polyreactivity (PSR sort gate)” value is recorded as “high polyreactivity”.
Consider “QVQLVETGGGLVQAGGSLRLSCAASGRIFVFYTKGWYRQAPGKERELVARITGGGSTSYADSVKGRFTISRDNAKNTVYLQMNSLKPEDTAVYYCAAVTRRRYYGHIYGYWGQGTQVTVSS”, for which the “polyreactivity (PSR sort gate)” value is “high polyreactivity”.
The value for “QVQLVETGGGLVQAGGSLRLSCAASGRIFWWYAMGWYRQAPGKERELVAAISTGSRTYYADSVKGRFTISRDNAKNTVYLQMNSLKPEDTAVYYCVADGLYSVSRSSIFEYWGQGTQVTVSS” was “low polyreactivity”; that for “QVQLVETGGGLVQAGGSLRLSCAASGRTFSRNAMGWYRQAPGKERELVAAISQRGVSTYYADSVKGRFTISRDNAKNTVYLQMNSLKPEDTAVYYCNTRGTYRYDYWGQGTQVTVSS” was “low polyreactivity”; that for “QVQLVETGGGLVQAGGSLRLSCAASGSIFDWYAMGWYRQAPGKEGELVAAISSGDSTYYADSVKGRFTISRDNAKNTVYLKMNSLKPEDTAVYYCAAVTKLSGIRYNYWGQGTQVTVSS” was “low polyreactivity”.
For the sequence “QVQLVETGGGLVQAGGSLRLSCAASGSIFRDNAMGWYRQAPGKESELVAAINVRDGDTFYADSVKGRFTISRDNAKNTVYLQMNSLKPEDTAVYYCAVAGATSYFAYDSWGQGTQVTVSS”, the “polyreactivity (PSR sort gate)” value is “low polyreactivity”.
